Test results from US20220031842A1 (JIANGSU HENGRUI MEDICINE, published 2022).

T1: LAG-3 extracellular domain with a Flag tag (human, UniProt P18627 23-434)
T1 construct: also called LAG-3-Flag; LAG-3-Flag antigen
T1 sequence: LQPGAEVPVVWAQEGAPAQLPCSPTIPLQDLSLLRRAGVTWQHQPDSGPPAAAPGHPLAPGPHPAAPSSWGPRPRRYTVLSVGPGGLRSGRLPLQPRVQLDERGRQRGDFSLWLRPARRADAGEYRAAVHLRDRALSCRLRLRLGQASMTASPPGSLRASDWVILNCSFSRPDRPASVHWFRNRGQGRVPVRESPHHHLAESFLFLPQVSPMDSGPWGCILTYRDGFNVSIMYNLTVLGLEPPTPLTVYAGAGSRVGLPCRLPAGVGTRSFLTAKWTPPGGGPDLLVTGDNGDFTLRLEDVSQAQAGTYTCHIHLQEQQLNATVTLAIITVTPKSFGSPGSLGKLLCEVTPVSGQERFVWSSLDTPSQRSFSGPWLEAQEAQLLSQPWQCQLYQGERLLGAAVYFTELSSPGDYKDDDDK

T2: Fusion protein of LAG-3 extracellular region and mIgG2a Fc (human)
T2 construct: Limits of the signal peptide are marked only by lost underlining; also called LAG-3-mFc; LAG-3-mFc fusion protein
T2 chain: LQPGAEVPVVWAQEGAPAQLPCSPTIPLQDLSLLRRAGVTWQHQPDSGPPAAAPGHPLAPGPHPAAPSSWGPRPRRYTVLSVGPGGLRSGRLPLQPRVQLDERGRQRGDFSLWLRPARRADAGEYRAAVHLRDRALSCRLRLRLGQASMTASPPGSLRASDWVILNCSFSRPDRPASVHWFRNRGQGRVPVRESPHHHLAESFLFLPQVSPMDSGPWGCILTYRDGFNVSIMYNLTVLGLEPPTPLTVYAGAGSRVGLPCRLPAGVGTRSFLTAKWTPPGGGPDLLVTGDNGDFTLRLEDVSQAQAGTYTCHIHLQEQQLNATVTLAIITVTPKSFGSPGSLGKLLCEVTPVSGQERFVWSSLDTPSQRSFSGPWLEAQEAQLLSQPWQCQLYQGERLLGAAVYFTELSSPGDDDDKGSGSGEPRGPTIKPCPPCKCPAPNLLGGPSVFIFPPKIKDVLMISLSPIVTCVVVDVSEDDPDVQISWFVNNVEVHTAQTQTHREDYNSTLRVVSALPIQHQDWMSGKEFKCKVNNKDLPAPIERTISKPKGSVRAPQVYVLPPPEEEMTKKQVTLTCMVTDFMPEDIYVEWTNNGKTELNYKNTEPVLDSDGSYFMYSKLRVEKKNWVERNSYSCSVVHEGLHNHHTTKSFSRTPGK

B1: Hu229-014 (antibody, human IgG4 S228P, kappa, V domains shown)
VH: QVQLVQSGSELKKPGASVKVSCKASGYTFTTSGMSWVKQAPGQGLKWMGWINTYSGVPTYADDFKGRFVFSLDTSVSTAYLQISSLKAEDTATYYCARDNYDARDVYYYAMDYWGQGTTVTVSS
VL: DIQMTQSPSSLSASVGDRVTITCRASENIYSNLAWYQQKPGKAPKLLVYAATNLADGVPSRFSGSGSGTQYTLTISSLQPEDFATYYCQHFWITPWTFGGGTKVEIKR
notes: Humanized mAb229
B2: Hu229-009 (antibody, human IgG4 S228P, kappa, V domains shown)
VH: QVQLVQSGSELKKPGASVKVSCKASGYTFTTSGMSWVRQAPGQGLKWMGWINTYSGVPTYADDFKGRFVFSLDTSVSTAYLQISSLKAEDTAVYYCARDNYDARDVYYYAMDYWGQGTTVTVSS
VL: DIQMTQSPSSLSASVGDRVTITCRASENIYSNLAWYQQKPGKAPKLLVYAATNLADGVPSRFSGSGSGTDYTLTISSLQPEDFATYYCQHFWITPWTFGGGTKVEIKR
notes: Humanized mAb229
B3: Hu229-010 (antibody, human IgG4 S228P, kappa, V domains shown)
VH: QVQLVQSGSELKKPGASVKVSCKASGYTFTTSGMSWVRQAPGQGLKWMGWINTYSGVPTYADDFKGRFVFSLDTSVSTAYLQISSLKAEDTAVYYCARDNYDARDVYYYAMDYWGQGTTVTVSS
VL: DIQMTQSPSSLSASVGDRVTITCRASENIYSNLAWYQQKPGKAPKLLVYAATNLADGVPSRFSGSGSGTQYTLTISSLQPEDFATYYCQHFWITPWTFGGGTKVEIKR
notes: Humanized mAb229
B4: Hu229-015 (antibody, human IgG4 S228P, kappa, V domains shown)
VH: QVQLVQSGSELKKPGASVKVSCKASGYTFTTSGMSWVKQAPGQGLKWMGWINTYSGVPTYADDFKGRFVFSLDTSVSTAYLQISSLKAEDTATYYCARDNYDARDVYYYAMDYWGQGTTVTVSS
VL: DIQMTQSPSSLSASVGDRVTITCRASENIYSNLAWYQQKPGKSPKLLVYAATNLADGVPSRFSGSGSGTQYTLTISSLQPEDFATYYCQHFWITPWTFGGGTKVEIKR
notes: Humanized mAb229
B5: Hu229-017 (antibody, human IgG4 S228P, kappa, V domains shown)
VH: QVQLVQSGSELKKPGASVKVSCKASGYTFTTSGMSWVKQAPGQGLKWMGWINTYSGVPTYADDFKGRFVFSLDTSVSTAYLQISSLKAEDTATYFCARDNYDARDVYYYAMDYWGQGTTVTVSS
VL: DIQMTQSPSSLSASVGDRVTITCRASENIYSNLAWYQQKPGKAPKLLVYAATNLADGVPSRFSGSGSGTDYTLTISSLQPEDFATYYCQHFWITPWTFGGGTKVEIKR
notes: Humanized mAb229
B6: Hu229-019 (antibody, human IgG4 S228P, kappa, V domains shown)
VH: QVQLVQSGSELKKPGASVKVSCKASGYTFTTSGMSWVKQAPGQGLKWMGWINTYSGVPTYADDFKGRFVFSLDTSVSTAYLQISSLKAEDTATYFCARDNYDARDVYYYAMDYWGQGTTVTVSS
VL: DIQMTQSPSSLSASVGDRVTITCRASENIYSNLAWYQQKPGKSPKLLVYAATNLADGVPSRFSGSGSGTQYTLTISSLQPEDFATYYCQHFWITPWTFGGGTKVEIKR
notes: Humanized mAb229
B7: Hu229-013 (antibody, human IgG4 S228P, kappa, V domains shown)
VH: QVQLVQSGSELKKPGASVKVSCKASGYTFTTSGMSWVKQAPGQGLKWMGWINTYSGVPTYADDFKGRFVFSLDTSVSTAYLQISSLKAEDTATYYCARDNYDARDVYYYAMDYWGQGTTVTVSS
VL: DIQMTQSPSSLSASVGDRVTITCRASENIYSNLAWYQQKPGKAPKLLVYAATNLADGVPSRFSGSGSGTDYTLTISSLQPEDFATYYCQHFWITPWTFGGGTKVEIKR
notes: also called LAG-3 antibody Hu229-013; LAG3 antibody Hu229-013
B8: Hu303-010 (antibody, human IgG4 S228P, kappa, V domains shown)
VH: QVQLVQSGAEVKKPGASVKVSCKASGYTFTDYYMNWVRQAPGQRLEWMGVINPYNGDTAYNQKFKGRVTITVDKSASTAYMELSSLRSEDTAVYYCTRDDGYYDYYFDVWGQGTTVTVSS
VL: DIQMTQSPSSLSASVGDRVTITCRASQDIGSRLNWYQQKPGKAPKRLIYATSTLDSGVPSRFSGSRSGTDFTLTISSLQPEDFATYYCLQLASSPPTFGGGTKVEIKR
notes: Humanized mAb303

Key:
[1] = target: T1, LAG-3 extracellular domain with a Flag …; assay: SPR (Biacore), antibody captured on anti-human capture chip, LAG-3-Flag in flow
From the text: 2. […] Then, the LAG-3-Flag antigen (produced in-house, SEQ ID NO:1) was flowed through the surface of the biochip, and the reaction signal was detected real time using a Biacore instrument to obtain the binding and dissociation curves, the value of affinity was obtained by fitting, see table 10 below. After each cycle of dissociation was finished in the experiment, the biochip was washed and regenerated with a regeneration solution provided in the human anti-capture kit.

[2] = target: T2, Fusion protein of LAG-3 extracellular …; assay: ELISA, LAG-3-mFc captured by anti-mouse Fc on plate (which fusion: inferred)
From the text: The binding ability of anti-LAG-3 antibody to human LAG-3 protein was detected by ELISA assay. LAG-3 fusion protein with Fc or mFc tag was immobilized into 96-well microtiter plate by binding to anti-Fc or anti-mFc antibody coated on the microtiter plate, the strength of the signal after the addition of the antibody was used to determine the binding activity of the antibody to LAG-3, the specific experimental method is as follows.
The goat anti-human Fc antibody (Jackson Immuno Research, Cat No. 109-005-008) or goat anti-mouse Fc antibody (Sigma, Cat No. M3534-1ML) was diluted to a concentration of 2 μg/ml with PBS buffer at pH 7.4 (Sigma, Cat No. P4417-100TAB), and added to a 96-well plate at a volume of 50 μl/well and then, the plate was incubated in the incubator at 37° C. for 2 hours. After discarding the liquid, the plates were blocked with 200 μl/well of blocking solution containing 5% skim milk (Bright Dairy, skim milk powder) in PBS, and incubated in the incubator at 37° C. for 2.5 hours or overnight at 4° C. (16-18 hours). After blocking, the blocking solution was discarded and the plate was washed 5 times with PBST buffer (PH7.4 PBS containing 0.05% tween-20). LAG-3-Fc fusion protein (SEQ ID NO:3, produced in-house) or LAG-3-mFc fusion protein (SEQ ID NO: 4, produced in-house) was diluted with sample diluent (PH7.4 PBS containing 1% BSA) to 1 μg/ml and was added to each well, 50 μl/well. Then the plate was incubated in the incubator at 37° C. for 1 h or overnight at 4° C. After incubation, the reaction solution in the plate was discarded, and the plate was washed with PBST for 6 times, and then was added with 50 μl/well of various concentrations of antibodies to be tested (hybridoma purified antibody or humanized antibody) which have been diluted with sample diluent, and the plate was incubated at 37° C. for 1 h. The plates was washed 5 times with PBST after incubation, and was added with 100 μl/well of goat anti-mouse (Jackson Immuno Research, Cat No. 115-035-003) or goat anti-human secondary antibody (Jackson Immuno Research, Cat No. 109-035-003) labeled with HRP, diluted in sample diluent, and the plate was incubated at 37° C. for 1 h.

[3] = target: T3, Fusion protein of LAG-3 extracellular region and hIgG1 Fc (human); assay: competition: biotin-LAG-3-Fc binding to fixed Daudi cells, antibody titrated
T3 construct: Limits of the signal peptide are marked only by lost underlining; also called LAG-3-Fc; LAG-3-Fc fusion protein
T3 sequence (chain, as listed by the source limits assumed): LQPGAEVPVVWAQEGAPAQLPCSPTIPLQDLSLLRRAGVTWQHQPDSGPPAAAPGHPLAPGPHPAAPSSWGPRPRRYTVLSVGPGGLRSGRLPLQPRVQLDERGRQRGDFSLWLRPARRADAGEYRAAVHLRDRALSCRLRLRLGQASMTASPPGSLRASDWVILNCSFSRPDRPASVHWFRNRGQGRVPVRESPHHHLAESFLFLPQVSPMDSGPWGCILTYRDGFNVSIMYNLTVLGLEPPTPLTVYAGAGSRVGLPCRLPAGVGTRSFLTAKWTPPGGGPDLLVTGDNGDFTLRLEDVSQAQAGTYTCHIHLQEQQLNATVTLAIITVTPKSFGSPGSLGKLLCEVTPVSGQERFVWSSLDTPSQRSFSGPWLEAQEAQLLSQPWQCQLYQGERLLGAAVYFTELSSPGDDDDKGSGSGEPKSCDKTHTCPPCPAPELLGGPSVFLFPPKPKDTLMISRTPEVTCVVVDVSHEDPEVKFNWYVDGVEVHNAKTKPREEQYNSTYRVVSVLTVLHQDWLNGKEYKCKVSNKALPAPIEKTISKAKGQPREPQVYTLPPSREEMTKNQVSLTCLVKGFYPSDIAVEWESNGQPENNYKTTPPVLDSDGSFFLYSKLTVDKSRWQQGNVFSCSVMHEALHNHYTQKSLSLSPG
Procedure: Daudi cells (human leukemia cells, purchased from the cell bank in Chinese Academy of Sciences) were seeded in 96-well plate with a density of 3×10⁵/well. After centrifugation at 1000 rpm, the supernatant was discarded and then the plate was fixed with 4% PFA for 30 min at room temperature. The plate was washed 4 times with PBS after discarding the fixed solution, and the plate was blocked with 200 μl/well of blocking solution containing 5% skim milk (Bright Dairy, skim milk powder) diluted in PBS, and incubated at 37° C. for 2.5 hours. After blocking, the blocking solution was discarded and the plate was washed 5 times with PBST buffer (pH7.4 PBS containing 0.05% tween-20), added with 50 μl/well mixture of biotin-labeled (Biotin labeling kit, Dojindo Chemical, Cat No. LK03) LAG-3-Fc fusion protein (produced in-house, SEQ ID NO: 3) and gradient concentrations of the antibody to be tested, wherein the biotin-labeled LAG-3-Fc fusion protein has been diluted with sample diluent (PH7.4 PBS containing 1% BSA) at a final concentration of 0.4 μg/ml, and pre-mixed for an hour, then the plate was incubated at 37° C. for 1 h. The reaction solution was discarded and the plate was washed 5 times with PBST after incubation, 50 μl/well of HRP-labeled Streptavidin (Sigma, Cat No. 52438) diluted with sample diluent was added, and the plate was incubated at 37° C. for 1 h. After washing the plate 5 times with PBST, 50 μl/well of TMB chromogenic substrate (KPL, Cat No. 52-00-03) was added to each well, and incubated at room temperature for 5-15 min, the reaction was stopped by the addition of 50 μl 1M H₂SO₄ to each well. The OD value at a wavelength of 450 nm was read on NOVOStar microplate reader, and then the activity of the LAG-3 antibody in blocking the binding of the antigen to Daudi cells was calculated.

Binder | Kd [1] | EC50 [2] | IC50 [3]
B1 | 0.0374 nM | 0.153 nM | 0.718 nM
B2 | 0.0488 nM | 0.152 nM | 0.559 nM
B3 | 0.0382 nM | 0.174 nM | 0.453 nM
B4 | 0.0459 nM | 0.156 nM | 0.808 nM
B5 | 0.0671 nM | 0.048 nM | 0.239 nM
B6 | 0.0729 nM | 0.068 nM | 0.289 nM
B7 | 0.0281 nM | 0.106 nM | 0.39 nM
B8 | 0.147 nM | 0.137 nM | 0.346 nM
